Results taken from IntAct's records for PubMed 10898792.

B1: Cell division control protein 13 (Saccharomyces cerevisiae), P32797 (parent)
chain: MDTLEEPECPPHKNRIFVSSSKDFEGYPSKAIVPVQFVALLTSIHLTETKCLLGFSNFERRGDQSQEDQYLIKLKFKDRGSERLARITISLLCQYFDIELPDLDSDSGASPTVILRDIHLERLCFSSCKALYVSKHGNYTLFLEDIKPLDLVSVISTISTKSTNSSKHSSSELISECDLNNSLVDIFNNLIEMNRDEKNRFKFVKLIHYDIELKKFVQDQQKVLSQKSKAAAINPFFVPNRLGIPYIESQNEFNSQLMTLNVDEPTTDISNMGEEMHDSADPIEDSDSSTTSSTGKYFSSKSYIQSQTPERKTSVPNNWHDDDSGSKRKRKLSFHSPNASSIRKAISYEQLSLASVGSVERLEGKIVGMNPPQFASINEFKYCTLKLYFTQLLPNVPDKVLVPGVNCIEIVIPTRERICELFGVLNCQSDKISDILLLEKPDRISVEVERILWDNDKTASPGMAVWSLKNISTDTQAQAQVQVPAQSSASIDPSRTRMSKMARKDPTIEFCQLGLDTFETKYITMFGMLVSCSFDKPAFISFVFSDFTKNDIVQNYLYDRYLIDYENKLELNEGFKAIMYKNQFETFDSKLRKIFNNGLRDLQNGRDENLSQYGIVCKMNIKVKMYNGKLNAIVRECEPVPHSQISSIASPSQCEHLRLFYQRAFKRIGESAISRYFEEYRRFFPIHRNGSHLAKLRFDEVKHEPKKSPTTPALAEHIPDLNADVSSFDVKFTDISSLLDSSARLPRPQQTHKSNTLYSCEGRIIAIEYHASDLCFHITNELPLLQTRGLAPERVLQLHIITSKNFAYFFNRSSAYLQRQPLEEKYTQLAQFLGHSFKFNITSSLTLFPDTTVALQIWCPIECTFRELQQQLAHPKVAAAPDSGSLDCAINATVNPLRLLAAQNGVTVKKEEDNDDDAGAVPTS
partner: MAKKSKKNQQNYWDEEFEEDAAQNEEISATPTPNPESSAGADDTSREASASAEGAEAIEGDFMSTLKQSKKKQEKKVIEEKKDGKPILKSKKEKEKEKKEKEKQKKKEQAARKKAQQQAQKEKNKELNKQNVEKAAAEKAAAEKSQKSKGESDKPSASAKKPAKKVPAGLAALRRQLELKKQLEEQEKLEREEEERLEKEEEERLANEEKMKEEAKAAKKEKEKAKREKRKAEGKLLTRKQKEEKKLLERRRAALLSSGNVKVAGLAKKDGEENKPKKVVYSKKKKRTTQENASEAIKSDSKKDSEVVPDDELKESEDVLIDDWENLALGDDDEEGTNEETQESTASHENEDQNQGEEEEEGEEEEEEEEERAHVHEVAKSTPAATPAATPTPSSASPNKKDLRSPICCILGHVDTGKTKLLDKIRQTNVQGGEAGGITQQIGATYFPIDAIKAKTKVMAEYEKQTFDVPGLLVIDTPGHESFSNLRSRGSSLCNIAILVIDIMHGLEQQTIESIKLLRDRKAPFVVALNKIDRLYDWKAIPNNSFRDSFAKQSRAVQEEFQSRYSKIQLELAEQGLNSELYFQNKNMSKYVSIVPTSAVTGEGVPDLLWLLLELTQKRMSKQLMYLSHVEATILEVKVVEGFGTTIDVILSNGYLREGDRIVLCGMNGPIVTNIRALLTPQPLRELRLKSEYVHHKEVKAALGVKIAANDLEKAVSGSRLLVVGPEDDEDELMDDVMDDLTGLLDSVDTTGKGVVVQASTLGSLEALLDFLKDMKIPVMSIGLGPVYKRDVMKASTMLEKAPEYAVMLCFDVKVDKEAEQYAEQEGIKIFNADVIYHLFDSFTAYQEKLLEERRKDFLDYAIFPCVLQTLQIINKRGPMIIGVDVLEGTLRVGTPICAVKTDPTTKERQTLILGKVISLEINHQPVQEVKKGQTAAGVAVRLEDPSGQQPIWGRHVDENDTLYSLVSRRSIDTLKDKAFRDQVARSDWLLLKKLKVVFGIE
B2: Cell division control protein 13 (Saccharomyces cerevisiae), P32797 (parent)
chain: B1 chain
partner: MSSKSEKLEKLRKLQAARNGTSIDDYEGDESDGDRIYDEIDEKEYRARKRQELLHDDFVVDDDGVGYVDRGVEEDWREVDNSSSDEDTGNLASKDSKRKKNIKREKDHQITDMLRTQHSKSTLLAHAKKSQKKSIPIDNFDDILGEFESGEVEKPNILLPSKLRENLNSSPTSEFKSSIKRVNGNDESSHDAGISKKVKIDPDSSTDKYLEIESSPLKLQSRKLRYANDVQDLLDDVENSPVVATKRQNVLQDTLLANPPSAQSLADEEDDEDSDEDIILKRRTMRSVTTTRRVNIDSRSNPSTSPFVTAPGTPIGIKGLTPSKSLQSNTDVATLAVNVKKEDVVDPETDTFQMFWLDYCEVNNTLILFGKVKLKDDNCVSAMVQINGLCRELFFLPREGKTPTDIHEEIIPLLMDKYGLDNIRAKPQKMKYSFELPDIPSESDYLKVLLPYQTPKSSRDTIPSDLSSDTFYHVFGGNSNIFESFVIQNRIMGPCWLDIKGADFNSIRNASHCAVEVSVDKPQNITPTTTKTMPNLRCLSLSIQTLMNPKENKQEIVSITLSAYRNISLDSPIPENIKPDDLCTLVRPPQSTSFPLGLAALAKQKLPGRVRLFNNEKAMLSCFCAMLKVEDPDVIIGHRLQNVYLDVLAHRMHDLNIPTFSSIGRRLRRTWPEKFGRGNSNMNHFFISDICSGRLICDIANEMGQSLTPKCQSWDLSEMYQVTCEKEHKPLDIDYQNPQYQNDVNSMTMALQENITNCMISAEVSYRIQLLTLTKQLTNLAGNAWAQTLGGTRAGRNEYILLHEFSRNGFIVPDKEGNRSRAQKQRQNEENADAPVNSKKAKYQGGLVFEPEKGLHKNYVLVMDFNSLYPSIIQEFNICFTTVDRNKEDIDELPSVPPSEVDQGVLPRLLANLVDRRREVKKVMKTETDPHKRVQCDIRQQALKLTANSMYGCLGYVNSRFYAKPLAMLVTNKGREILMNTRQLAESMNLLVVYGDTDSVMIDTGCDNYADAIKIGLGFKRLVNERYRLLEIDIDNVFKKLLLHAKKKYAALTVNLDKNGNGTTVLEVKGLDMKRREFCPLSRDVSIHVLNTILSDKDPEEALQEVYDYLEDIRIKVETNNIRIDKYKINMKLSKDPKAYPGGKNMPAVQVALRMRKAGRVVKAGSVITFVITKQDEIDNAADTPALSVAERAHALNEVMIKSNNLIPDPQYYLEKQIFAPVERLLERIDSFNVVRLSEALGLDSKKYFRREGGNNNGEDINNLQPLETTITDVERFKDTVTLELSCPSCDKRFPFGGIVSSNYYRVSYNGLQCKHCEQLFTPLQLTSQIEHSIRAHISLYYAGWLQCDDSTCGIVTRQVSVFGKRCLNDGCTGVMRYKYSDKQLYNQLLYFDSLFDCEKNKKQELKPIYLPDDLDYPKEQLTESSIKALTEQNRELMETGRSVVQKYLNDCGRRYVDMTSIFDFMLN
B3: DNA polymerase alpha catalytic subunit A (Saccharomyces cerevisiae), P13382 (parent)
chain: B2 partner
partner: B1 chain

Variants of: B1
Settings: with if2p_yeast FUN12, P39730

effect of a mutation on the interaction	Variant
decreasing interaction	G243R
decreasing interaction	I72T
decreasing interaction	K129R

Variants of: B2
Settings: with dpola_yeast POL1, P13382

effect of a mutation on the interaction	Variant
decreasing interaction	K50Q
decreasing interaction	L392P
decreasing interaction	S228P
decreasing interaction	I72T
decreasing interaction	C124R
decreasing interaction	G243R
decreasing interaction	D97F
decreasing interaction	Y382H
decreasing interaction	L149S
decreasing interaction	I523V
decreasing interaction	K129R

Variants of: B3
Settings: with cdc13_yeast CDC13, P32797

effect of a mutation on the interaction	Variant
decreasing interaction	E238K
decreasing interaction	D236N
decreasing interaction	P241T
